Changes are numbered by the printed parent chain.

Assay [1] addresses T1, HER3 on human tumor cell lines (human, UniProt P21860 20-1342).
T1 construct: whole, on cells; The immunogen was the human HER3 extracellular domain (NM_001982.4, positions 20-643), but the flow cytometry assays used endogenous HER3 on cells; also called HER3 protein
The experiment in a line: flow cytometry on SW620 cells.

The target in assay [2] is T1, HER3 on human tumor cell lines. The experiment in a line: flow cytometry on MDA-MB-453 cells.

T1 sequence (P21860 20-1342): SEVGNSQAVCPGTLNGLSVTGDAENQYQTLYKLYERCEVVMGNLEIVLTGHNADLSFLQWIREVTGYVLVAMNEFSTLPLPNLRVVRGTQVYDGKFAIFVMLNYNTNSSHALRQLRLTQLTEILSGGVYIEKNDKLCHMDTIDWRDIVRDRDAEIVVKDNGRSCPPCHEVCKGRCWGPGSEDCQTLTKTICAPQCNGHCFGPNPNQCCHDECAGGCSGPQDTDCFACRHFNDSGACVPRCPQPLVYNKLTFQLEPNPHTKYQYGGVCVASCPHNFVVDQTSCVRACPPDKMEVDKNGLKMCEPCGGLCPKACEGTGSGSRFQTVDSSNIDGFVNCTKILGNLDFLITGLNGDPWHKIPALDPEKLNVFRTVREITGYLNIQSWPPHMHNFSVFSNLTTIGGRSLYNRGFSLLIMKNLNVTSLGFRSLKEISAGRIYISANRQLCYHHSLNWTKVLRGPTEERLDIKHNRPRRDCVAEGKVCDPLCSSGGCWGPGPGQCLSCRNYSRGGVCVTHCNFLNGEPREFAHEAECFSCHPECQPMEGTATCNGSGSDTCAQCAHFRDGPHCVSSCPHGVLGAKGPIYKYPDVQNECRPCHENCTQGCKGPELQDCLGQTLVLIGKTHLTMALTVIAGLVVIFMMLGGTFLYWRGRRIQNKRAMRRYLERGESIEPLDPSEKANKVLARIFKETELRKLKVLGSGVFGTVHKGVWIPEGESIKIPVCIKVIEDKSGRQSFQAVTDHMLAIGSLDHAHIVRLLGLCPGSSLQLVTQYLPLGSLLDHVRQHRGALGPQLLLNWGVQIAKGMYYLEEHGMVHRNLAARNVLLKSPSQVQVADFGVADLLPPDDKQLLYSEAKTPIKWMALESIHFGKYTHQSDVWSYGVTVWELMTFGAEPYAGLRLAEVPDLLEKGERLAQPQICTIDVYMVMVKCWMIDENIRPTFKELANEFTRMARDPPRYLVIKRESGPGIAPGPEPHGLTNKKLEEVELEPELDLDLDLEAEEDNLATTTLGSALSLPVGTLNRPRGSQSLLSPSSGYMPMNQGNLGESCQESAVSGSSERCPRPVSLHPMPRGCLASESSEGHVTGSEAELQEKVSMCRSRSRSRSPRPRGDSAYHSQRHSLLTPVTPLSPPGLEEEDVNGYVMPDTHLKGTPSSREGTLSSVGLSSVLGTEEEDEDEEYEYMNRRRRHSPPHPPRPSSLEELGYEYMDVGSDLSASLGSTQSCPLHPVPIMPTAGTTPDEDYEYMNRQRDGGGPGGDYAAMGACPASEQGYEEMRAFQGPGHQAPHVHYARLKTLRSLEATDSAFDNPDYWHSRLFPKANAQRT

B1: humanized 4O3 antibody L2H4 (antibody, human IgG1, kappa, V domains shown)
VH: QVQLQESGPGLVKPSQTLSLTCTVSGISITTGNYRWSWIRQHPGKKLEWIGNIYYSGAITYNPSLKSRVTISRDTSKNQFFLKLSSVTAADTAVYYCARDGGTVVEGWYFDVWGKGTTVTVSS
VL: EIVLTQSPDTQSVTPKEKVTITCRASQSISDYLHWYQQKPDQSPKLLIKYASQSISGVPSRFSGSGSGTDFTLTINSLEAEDVGLYYCQSGRSFPLTFGGGTKVEIKR
notes: also called Hu4O3
In the case of B1, a half-maximal effect in assay [1] (EC50) was put at 1200 nM.

B2: humanized 4O3 antibody L1H5 (antibody, human IgG1, kappa)
heavy: not shown
light: EIVLTQSPDTQSVTPKEKVTITCRASQSISDYLHWYQQKPDQSPKLLIKYASQSISGVPSRFSGSGSGTDFTLTINSLEAEDAATYYCQSGRSFPLTFGGGTKVEIKRTVAAPSVFIFPPSDEQLKSGTASVVCLLNNFYPREAKVQWKVDNALQSGNSQESVTEQDSKDSTYSLSSTLTLSKADYEKHKVYACEVTHQGLSSPVTKSFNRGEC
notes: also called Hu4O3 (L1H5); Hu4O3
As to B2, the EC50 in assay [2] was 122 nM; in assay [1], 147 nM.

B3: humanized 4O3 antibody L4H4 (antibody, human IgG1, kappa, V domains shown)
VH: B1 VH
VL: B1 VL with D41G, S43A, V83F
notes: also called Hu4O3
Turning to B3, the EC50 in assay [1] was 90 nM. This lies in the double-digit nanomolar range.

B4: humanized 4O3 antibody L1H4 (antibody, human IgG1, kappa)
heavy: not shown
light: B2 light
notes: also called Hu4O3
For the molecule B4, the results for the EC50 in assay [2] and in assay [1] were 71.5 nM and 194 nM, respectively.

B5: humanized 4O3 antibody L4H7 (antibody, human IgG1, kappa, V domains shown)
VH: B1 VH with H42P, K46G, N52Y, F81S, K83Q, S85R, K115Q
VL: B1 VL with D41G, S43A, V83F
notes: also called Hu4O3
Molecule B5 had an EC50 in assay [1] of 21.9 nM.
